Experimental data: the DeepSol protein solubility set

test: soluble on expression in E. coli; label from the status in PepcDB or PDB records

Sequence	soluble on expression in E. coli
MNPTFLEFIGANQRSSCGYCKNDRGERTPARSAKSGAWAHSMTVNDYSGLLDVGWRRSGRYLYKPDNRVTCCPQYTIRLDVTKFKMSRSQKRAMRQMNEFLATGKRPVCGIKEEDAPVEMNLKGSGSQSEQSKKNLKSHEVSTKKMKDADRPVLTKKEIRNKKFEEKCRQKNLDPDVVRTERRQKDAARQRTIQSYIDEARPDWKHKLEVKLVSLGGDEFGTRDNESFELYKNYQHTIHKDEDCRLAGFRRFLCDSPLKKEQRGGIELGSFHLWFLLDDKLIAVCVVDILPKCFSAKYMYYNPEYSFLSLGTYTALREIEQTQRLHAIYSNLKYYYMGYYIHSCPKMRYKAKFRPSDLLCDQSFRWVDFNSCRDLLDGSTCSNGFSEFCPGAPRPASPVVDTLLVFSNGSITTLSDALTEIPEAAENEQFLANVRDLAHLVGPDLSRVVYYFNELNS	not soluble
MSLLADLVNLDISDNSEKIIAEYIWVGGSGMDMRSKARTLPGPVTDPSKLPKWNYDGSSTGQAPGQDSEVILYPQAIFKDPFRRGNNILVMCDAYTPAGEPIPTNKRHAAAEIFANPDVIAEVPWYGIEQEYTLLQKDVNWPLGWPIGGFPGPQGPYYCSIGADKSFGRDIVDAHYKASLYAGINISGINGEVMPGQWEFQVGPSVGISAADEIWIARYILERITEIAGVVVSFDPKPIPGDWNGAGAHTNYSTKSMREEGGYEIIKKAIEKLGLRHKEHISAYGEGNERRLTGHHETADINTFLWGVANRGASIRVGRDTEKEGKGYFEDRRPASNMDPYVVTSMIAETTLLWNP	soluble
MSLSFTVAVKEEILGQHHLSRHELSAIIKMSGSIGLSTSGLTLSVVTENAKLARHLYESFLHFYEIKSEIRHHQRSNLRKNRVYTVFTDEKVQDLLSDLHLADSFFGLETGIDEAILSDEEAGRAYLCGAFLANGSIRDPESGKYQLEISSVYLDHAQGIASLLQQFLLDAKVLERKKGAVTYLQRAEDIMDFLIVIGAMQARDDFERVKILRETRNDLNRANNAETANIARTVSASMKTINNISKIKDIMGLENLPVDLQEVAQLRIQHPDYSIQQLADSLSTPLTKSGVNHRLRKINKIADELEGHHHHHH	soluble
MGSDKIHHHHHHMSGFLAVKFPVKEASVADQQDFLGRFDAMSSKATATVIAHYSSSFTLASKLLSPKIRRDIEALYAMVRVADEVVDGAAAAAGCAPDAVAEILDNYERQVLLSLSVPFHTDPVIHAFGNTARKCGFEQAHIVAFFDSMRRDLSQTSYDPTQLDEYIYGSAEVIGLMCLKIFLQDSTASPQDRATMEHGARRLGAAFQKVNFLRDLAEDREGLGRSYLPVFTEEMRDEIVTDIREDLDAARLSIPLLPFGARTGVRAATDLYGCLVDNLESASLEDLKNGRIRVPSMKKASLATKAMWKEVFQK	not soluble
GPGSMIQIIAPRGPLQEMLLLELQGKVVIPPKLLEEERERQRIPNSSEEEVKACSQVTGGKRLREDGECGVNVDTNQVVEVPLGCVVWDSRNETRCSLQIGTVEVSGSYGKRREPLLVLKRCVVGDKTADAEGAVACEYSESSGSQCCLLQEWLQEHPEELTLDATVRGATVPRKVYELVGVVERYIHLNSKPLRRFV	not soluble
MYVLIGGAGLVGLTLAQKLVELGHTVAIIDVDHTACRYAREQVGAMAFEGSAVSTEVLLEAGIRKADALAAVLRNDALNLAMVMLAKHYGVSHILSRMRHADFAQPLRLAGANHVISTVELSVSTMVNAIEYPQVESMMHFEQGQIEVLKISIPNSCYVANRSLAEIAQDSRFPSGSLIIGYQPHPHEDLVIPNGSTVLESGSTILIATKPGSLHQVIDFIEGCKLEHHHHHH	not soluble
GMDISLLKQVVQSTNKIALSTAVNNEADVKIVNFVWYEAQPDTLYFSSVKTSPALKVYDQNPDIAFITIPNDGTAGNPYLRAQHVKLQRSTKTMTDLLPQYLETVPNYQQVWDAIGSTLVVFELKLTDLFVDAGVGGEKQTLTFN	soluble
MGSDKIHHHHHHVERIETHDATPGVVVEALTRGPGAICIRGLFSESQIAEARRVVMAHSEDRAQTVTHFQGQAAEEQRLHLQRRVWNLLAKGGVFSEMSEQPVIVGAMRRFLGDDFIMGSIAANRILPGGPGQEPHIDYPYWDYHMPDTFPLGINTSFALNAQVTIPLDPFTAETGATAFVPHTQHELRYPAEGDRFFERCQRMTAEPGDAIVFFGATWHCAMPNRSTQDRSAVLIQYLPKFVKPMEDLRAMVGEDFVRRASPTMRQLLGLNFPYPQNLDEIAVATNAEGRKNAMR	not soluble
MSLTITVNGVEISEDMIASQLDHYADTPSPRDTAIQQLILHTLLIQQAKSEGLDVADEQQAIQTLLDSKLQVPAIDEASCREFYDRYPERFSAGESAVASHILLPKGEGLEASLIKAKAEGILEEAQANPSRFAALAQEHSTCPSGKQGGSLGQFGRGQMVPEFEQAVFSTEAGQITPHLVETQFGYHIIQVEQRAEGGKIGFDEVKERLQHYLADLAVNQAMHEYLNMLVSAAQISGYQMTAEGHHHHHH	soluble
MLEEYRKHVAERAAEGIAPKPLDANQMAALVELLKNPPAGEEEFLLDLLTNRVPPGVDEAAYVKAGFLAAIAKGEAKSPLLTPEKAIELLGTMQGGYNIHPLIDALDDAKLAPIAAKALSHTLLMFDNFYDVEEKAKAGNEYAKQVMQSWADAEWFLNRPALAEKLTVTVFKVTGETNTDDLSPAPDAWSRPDIPLHALAMLKNAREGIEPDQPGVVGPIKQIEALQQKGFPLAYVGDVVGTGSSRKSATNSVLWFMGDDIPHVPNKRGGGLCLGGKIAPIFFNTMEDAGALPIEVDVSNLNMGDVIDVYPYKGEVRNHETGELLATFELKTDVLIDEVRAGGRIPLIIGRGLTTKAREALGLPHSDVFRQAKDVAESDRGFSLAQKMVGRACGVKGIRPGAYCEPKMTSVGSQDTTGPMTRDELKDLACLGFSADLVMQSFCHTAAYPKPVDVNTHHTLPDFIMNRGGVSLRPGDGVIHSWLNRMLLPDTVGTGGDSHTRFPIGISFPAGSGLVAFAAATGVMPLDMPESVLVRFKGKMQPGITLRDLVHAIPLYAIKQGLLTVEKKGKKNIFSGRILEIEGLPDLKVEQAFELTDASAERSAAGCTIKLNKEPIIEYLNSNIVLLKWMIAEGYGDRRTLERRIQGMEKWLANPELLEADADAEYAAVIDIDLADIKEPILCAPNDPDDARPLSAVQGEKIDEVFIGSCMTNIGHFRAAGKLLDAHKGQLPTRLWVAPPTRMDAAQLTEEGYYSVFGKSGARIEIPGCSLCMGNQARVADGATVVSTSTRNFPNRLGTGANVFLASAELAAVAALIGKLPTPEEYQTYVAQVDKTAVDTYRYLNFNQLSQYTEKADGVIFQTAV	soluble
AASPPTEEAVVATEPLTREDLIAYLASGCKSKEKWRIGTEHEKFGFEVNTLRPMKYDQIAELLNSIAERFEWEKVMEGDKIIGLKQGKQSISLEPGGQFELSGAPLETLHQTCAEVNSHLYQVKAVAEEMGIGFLGMGFQPKWRREDIPTMPKGRYDIMRNYMPKVGSLGLDMMLRTCTVQVNLDFSSEADMIRKFRAGLALQPIATALFANSPFTEGKPNGFLSMRSHIWTDTDKDRTGMLPFVFDDSFGFEQYVDYALDVPMYFAYRNGKYVDCTGMTFRQFLAGKLPCLPGELPTYNDWENHLTTIFPEVRLKRYMEMRGADGGPWRRLCALPAFWVGLLYDEDVLQSVLDLTADWTPAEREMLRNKVPVTGLKTPFRDGLLKHVAEDVLKLAKDGLERRGYKEVGFLNAVTEVVRTGVTPAENLLEMYNGEWGQSVDPVFQELLY	soluble
MGSSHHHHHHSSGLVPRGSHMSLDMKEHPDAEVQKNQVLTLEDWKEKWVTRHISFHQEQGHQLLKKHLDTFLKGQSGLRVFFPLCGKAIEMKWFADRGHTVVGVEISEIGIREFFAEQNLSYTEEPLAEIAGAKVFKSSSGSISLYCCSIFDLPRANIGKFDRIWDRGALVAINPGDHDRYADIILSLLRKEFQYLVAVLSYDPTKHAGPPFYVPSAELKRLFGTKCSMQCLEEVDALEERHKAWGLDYLFEKLYLLTEK	soluble
MVKCLSAHNKAPHVSVITPSYNSRRFIGETILSVQNQSYENWEMIIVDDCSTDQSAAKIKEIIEGDSRIRLLSLKENVGAAKARNLAIREARGRYIAFLDSDDIWLPHKLKTQLLFMEEMNIAFSYASYSLIDENGNELNREVSVPKSVDYHYLVGNTIIGCLTVMIDREKIPYVEMPSVQPEDTALWLNLLHEGHEAKGIQQVLAKYRIVANSVSSNKVRAAFRYWKLLRDQKSLNAVQSFYYFSKYAYHAYKKNKINVVGKTQLLEHHHHHH	not soluble
MNVSIKNTDAVNAIATVAIEKADYANEVEKALRTYRQRANVPGFRKGMVPMGMIKKMYGKGVKAEEINRVVGRELYRYIAENKLNVLGEPMPNEELQKEYDFDTTDDFEFVFDLALSPVVDVVVDKSIRVPYYTIQPTEEMIDRQIESMRSSYGHSVEADEVTANDVVKGRLCELEDGQPKEGGICVEEAMLLPAYMKDEEEKNKFVGAAKNSVVVFNPSKAYNNNEYELSSLLKVDKSAIGEHTGDFSFEISSISRHEKAELNEEFFKQAFGEETDIKNEADLRVKVTEGVREQFTAESDYKFLIDLRRELEAQVGELQFPDALLKRWLKLSHTEWSDEELEKQYPAMIKDLTFHVIKEDLVKKNDIVVTPQEVRNFAIIVAKNQFAQYGMSAVPQDALERYANTMMEKEDARRNFFDRVTENKLAAALKEKLDIDAKTVSPDEFNKLMTEQPASAE	not soluble
STVLIVSQEHQKIKTYINTVADRGVTEIPVKGGYSGTNQIMLMTTIAGYEFAKLQEAIAEIDETAFITVTPTSQASGRGFSLQKNHGRLDEDILMPM	not soluble
MSLSQSSRLSALPIFQASLSASQSPRYIFSSQNGTRIVFIQDNIIRWYNVLTDSLYHSLNFSRHLVLDDTFHVISSTSGDLLCLFNDNEIFVMEVPWGYSNVEDVSIQDAFQIFHYSIDEEEVGPKSSIKKVLFHPKSYRDSCIVVLKEDDTITMFDILNSQEKPIVLNKPNNSFGLDARVNDITDLEEGHHHHHH	soluble
MLEQIQQALAGDQEQFQALYGQYQPVIYKCMKKYYLKDYDTEDWLQEGRIVFFRTLERFDSEKQASLGKFFKRNFENHVHSLIRHQCAYKRRTDTLSISLEQRLESAGEELVDYLGTAATDPLGQLMIQEKLAAFPTRLSSLEQQILNAYLKGYTLEEIAKVRGGTFSAVRSAYDRAKAKMKYTLENE	not soluble
LGASWHRPDKCCLGYQKRPLPQVLLSSWYPTSQLCSKPGVIFLTKRGRQVCADKSKDWVKKLMQQLPVTAR	soluble
MGSDKIHHHHHHMSTLDQSGTFHLAGRNIRRLGYGAMQLAGKGVFGPPKDREEAIAVVREAVDSGVNHIDTSDFYGPHITNQIIREALHPYADDLLIVTKVGATRGEDASWNAAFSKEELTQAVHDNLRNLGKEVLDVVNLRAMFDVHGPAEGSLAAPLEVLADLQRQGLIRHIGVSNVTPRQITEAGEIVEIVCVQNQYNLAHRQDDALIDTLAAQGIAYVPFFPLGGFSPLQSTVLSDVATQLDASPLQVALAWLLKRSSNILVIPGTSSRAHLRQNLAAASLDLPDSAMTALAAIGG	not soluble
MGSDKIHHHHHHMNQEKIQELVSRSQQDDKRAFALLVSEFQPLVFRLAFRLLCDEEEARDITQETFVKVWLSLKTYNQENRLSTWLYKITCNTCYDRLRSLRHSPLDNESAFSDSVNIPSDDHIEISLSNKQLKELILRYTNELPPQQKLVFTLRDVEELEVAEVQIITGLSPEKIKSTLYLARKNIRNKMNQIDPDL	not soluble
